Laboratory results reported in patent publication US20180155451A1 (published 2018).

Each binder was assayed against T1, FcγRIa extracellular domain with C-terminal His tag (human, UniProt P12314 16-292) (assay: SPR Biacore, relative FcγRIa binding vs GpH7-A5/GpH7-B3/GpL16-k0).
T1 construct: extracellular domain; also called FcgRI; CD64; not shown: His tag at the C terminus
T1 sequence (P12314 16-292): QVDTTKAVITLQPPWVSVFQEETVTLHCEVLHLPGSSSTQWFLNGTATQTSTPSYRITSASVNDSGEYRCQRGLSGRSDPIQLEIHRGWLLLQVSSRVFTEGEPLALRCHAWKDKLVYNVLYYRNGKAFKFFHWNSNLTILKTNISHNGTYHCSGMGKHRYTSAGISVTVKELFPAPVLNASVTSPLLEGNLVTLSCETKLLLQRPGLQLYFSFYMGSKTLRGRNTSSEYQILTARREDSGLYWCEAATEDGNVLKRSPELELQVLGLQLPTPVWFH

Binder	He/Con_1a
GpH7-A5/GpH7-B3 variant S298_15Y/GpL16-k0 (antibody, human IgG1, kappa, mutation in one H chain only; also called He Ab S298_15Y; S298Y) heavy 1: not shown heavy 2: not shown light: DIVMTQSPLSLPVTPGEPASISCQASESLVHSNRNTYLHWYLQKPGQSPQLLIYKVSNRFSGVPDRFSGSGSGTDFTLKISRVEAEDVGVYYCSQNTHVPPTFGQGTKVEIERTVAAPSVFIFPPSDEQLKSGTASVVCLLNNFYPREAKVQWKVDNALQSGNSQESVTEQDSKDSTYSLSSTLTLSKADYEKHKVYACEVTHQGLSSPVTKSFNRGEC	107 % of HeCon Ab (=100)
GpH7-A5/GpH7-B3 variant S324_12R/GpL16-k0 (antibody, human IgG1, kappa, mutation in one H chain only; also called He Ab S324_12R; S324R) heavy 1: not shown heavy 2: not shown light: DIVMTQSPLSLPVTPGEPASISCQASESLVHSNRNTYLHWYLQKPGQSPQLLIYKVSNRFSGVPDRFSGSGSGTDFTLKISRVEAEDVGVYYCSQNTHVPPTFGQGTKVEIERTVAAPSVFIFPPSDEQLKSGTASVVCLLNNFYPREAKVQWKVDNALQSGNSQESVTEQDSKDSTYSLSSTLTLSKADYEKHKVYACEVTHQGLSSPVTKSFNRGEC	102 % of HeCon Ab (=100)
GpH7-A5/GpH7-B3 variant S324_14T/GpL16-k0 (antibody, human IgG1, kappa, mutation in one H chain only; also called He Ab S324_14T; S324T) heavy 1: not shown heavy 2: not shown light: DIVMTQSPLSLPVTPGEPASISCQASESLVHSNRNTYLHWYLQKPGQSPQLLIYKVSNRFSGVPDRFSGSGSGTDFTLKISRVEAEDVGVYYCSQNTHVPPTFGQGTKVEIERTVAAPSVFIFPPSDEQLKSGTASVVCLLNNFYPREAKVQWKVDNALQSGNSQESVTEQDSKDSTYSLSSTLTLSKADYEKHKVYACEVTHQGLSSPVTKSFNRGEC	121 % of HeCon Ab (=100)
GpH7-A5/GpH7-B3 variant S298_19Q/GpL16-k0 (antibody, human IgG1, kappa, mutation in one H chain only; also called He Ab S298_19Q; S298Q) heavy 1: not shown heavy 2: not shown light: DIVMTQSPLSLPVTPGEPASISCQASESLVHSNRNTYLHWYLQKPGQSPQLLIYKVSNRFSGVPDRFSGSGSGTDFTLKISRVEAEDVGVYYCSQNTHVPPTFGQGTKVEIERTVAAPSVFIFPPSDEQLKSGTASVVCLLNNFYPREAKVQWKVDNALQSGNSQESVTEQDSKDSTYSLSSTLTLSKADYEKHKVYACEVTHQGLSSPVTKSFNRGEC	109 % of HeCon Ab (=100)
GpH7-A5/GpH7-B3 variant S324_08L/GpL16-k0 (antibody, human IgG1, kappa, mutation in one H chain only; also called He Ab S324_08L; S324L) heavy 1: not shown heavy 2: not shown light: DIVMTQSPLSLPVTPGEPASISCQASESLVHSNRNTYLHWYLQKPGQSPQLLIYKVSNRFSGVPDRFSGSGSGTDFTLKISRVEAEDVGVYYCSQNTHVPPTFGQGTKVEIERTVAAPSVFIFPPSDEQLKSGTASVVCLLNNFYPREAKVQWKVDNALQSGNSQESVTEQDSKDSTYSLSSTLTLSKADYEKHKVYACEVTHQGLSSPVTKSFNRGEC	103 % of HeCon Ab (=100)
GpH7-A5/GpH7-B3 variant S324_03V/GpL16-k0 (antibody, human IgG1, kappa, mutation in one H chain only; also called He Ab S324_03V; S324V) heavy 1: not shown heavy 2: not shown light: DIVMTQSPLSLPVTPGEPASISCQASESLVHSNRNTYLHWYLQKPGQSPQLLIYKVSNRFSGVPDRFSGSGSGTDFTLKISRVEAEDVGVYYCSQNTHVPPTFGQGTKVEIERTVAAPSVFIFPPSDEQLKSGTASVVCLLNNFYPREAKVQWKVDNALQSGNSQESVTEQDSKDSTYSLSSTLTLSKADYEKHKVYACEVTHQGLSSPVTKSFNRGEC	104 % of HeCon Ab (=100)

Second part, the binder after the results:

He/Con_1a	Binder
106 % of HeCon Ab (=100)	GpH7-A5/GpH7-B3 variant S337_04F/GpL16-k0 (antibody, human IgG1, kappa, mutation in one H chain only; also called He Ab S337_04F; S337F) heavy 1: not shown heavy 2: not shown light: DIVMTQSPLSLPVTPGEPASISCQASESLVHSNRNTYLHWYLQKPGQSPQLLIYKVSNRFSGVPDRFSGSGSGTDFTLKISRVEAEDVGVYYCSQNTHVPPTFGQGTKVEIERTVAAPSVFIFPPSDEQLKSGTASVVCLLNNFYPREAKVQWKVDNALQSGNSQESVTEQDSKDSTYSLSSTLTLSKADYEKHKVYACEVTHQGLSSPVTKSFNRGEC
107 % of HeCon Ab (=100)	GpH7-A5/GpH7-B3 variant S337_03V/GpL16-k0 (antibody, human IgG1, kappa, mutation in one H chain only; also called He Ab S337_03V; S337V) heavy 1: not shown heavy 2: not shown light: DIVMTQSPLSLPVTPGEPASISCQASESLVHSNRNTYLHWYLQKPGQSPQLLIYKVSNRFSGVPDRFSGSGSGTDFTLKISRVEAEDVGVYYCSQNTHVPPTFGQGTKVEIERTVAAPSVFIFPPSDEQLKSGTASVVCLLNNFYPREAKVQWKVDNALQSGNSQESVTEQDSKDSTYSLSSTLTLSKADYEKHKVYACEVTHQGLSSPVTKSFNRGEC
114 % of HeCon Ab (=100)	GpH7-A5/GpH7-B3 variant S324_20W/GpL16-k0 (antibody, human IgG1, kappa, mutation in one H chain only; also called He Ab S324_20W; S324W) heavy 1: not shown heavy 2: not shown light: DIVMTQSPLSLPVTPGEPASISCQASESLVHSNRNTYLHWYLQKPGQSPQLLIYKVSNRFSGVPDRFSGSGSGTDFTLKISRVEAEDVGVYYCSQNTHVPPTFGQGTKVEIERTVAAPSVFIFPPSDEQLKSGTASVVCLLNNFYPREAKVQWKVDNALQSGNSQESVTEQDSKDSTYSLSSTLTLSKADYEKHKVYACEVTHQGLSSPVTKSFNRGEC
116 % of HeCon Ab (=100)	GpH7-A5/GpH7-B3 variant S324_18N/GpL16-k0 (antibody, human IgG1, kappa, mutation in one H chain only; also called He Ab S324_18N; S324N) heavy 1: not shown heavy 2: not shown light: DIVMTQSPLSLPVTPGEPASISCQASESLVHSNRNTYLHWYLQKPGQSPQLLIYKVSNRFSGVPDRFSGSGSGTDFTLKISRVEAEDVGVYYCSQNTHVPPTFGQGTKVEIERTVAAPSVFIFPPSDEQLKSGTASVVCLLNNFYPREAKVQWKVDNALQSGNSQESVTEQDSKDSTYSLSSTLTLSKADYEKHKVYACEVTHQGLSSPVTKSFNRGEC
107 % of HeCon Ab (=100)	GpH7-A5/GpH7-B3 variant S337_01G/GpL16-k0 (antibody, human IgG1, kappa, mutation in one H chain only; also called He Ab S337_01G; S337G) heavy 1: not shown heavy 2: not shown light: DIVMTQSPLSLPVTPGEPASISCQASESLVHSNRNTYLHWYLQKPGQSPQLLIYKVSNRFSGVPDRFSGSGSGTDFTLKISRVEAEDVGVYYCSQNTHVPPTFGQGTKVEIERTVAAPSVFIFPPSDEQLKSGTASVVCLLNNFYPREAKVQWKVDNALQSGNSQESVTEQDSKDSTYSLSSTLTLSKADYEKHKVYACEVTHQGLSSPVTKSFNRGEC
